The data set in a line: soluble on expression in E. coli; label from the status in PepcDB or PDB records.
“MAEQSDKDVKYYTLEEIQKHKDSKSTWVILHHKVYDLTKFLEEHPGGEEVLREQAGGDATENFEDVGHSTDARELSKTYIIGELHPDDRSKIAKPSETL”: the “soluble on expression in E. coli” value was “soluble”. For “STSPTATKYDVFLSFRGVDTRRNFISFLYKEFVRRKIRTFKDDKELENGRRISPELKRAIEESKFAVVVVSVNYAASPWCLDELVKIMDFENKGSITVMPIFYGVDPCHLRRQIGDVAEQFKKHEAREEDHEKVASWRRALTSLASISGDCSSKCEDEAKLVDEIADKISKNLMTVTTISNGKNLVGIDTHMKALNKKLDLNSNKSLRVVGIWARGYNGRSALAKYVYQDICHHFDSHCFLGSVKRISQGRHLSHLHEEFLIRIQGSKHNLKDQKVLLVADDVYKLEQLDALAEDFNGFGPGSVVIITTQDKHLFVSAGIKLVYEVELLKFQKVCELFRQFAFKKRDISAAVKLVYYRATNWLGCLSGRSG”, the “soluble on expression in E. coli” value was “soluble”.

For the sequence “MSLIREAQRSELPAILELWLESTTWGHPFIKANYWRDCIPLVRDAYLANAQNWVWEEDGKLLGFVSIMEGRFLAAMFVAPKAVRRGIGKALMQYVQQRHPHLMLEVYQKNQPAINFYQAQGFHIVDCAWQDETQLPTWIMSWPVVQTLEGGSHHHHHH”, the “soluble on expression in E. coli” value is reported as “soluble”.

On to “MQASELTPKWYVAPVSIKDEAVVKNLKAKIQALGFNHEIVDVKVLKEREVHEEVYSLKSGKLPRSLKNTTFNKWFVLDDYRYLRVKISEKNLLGRYIYIKMIYSEDAWRIVRNFPGITGIVGSSGRGALPIPLDEKDANNLEQMLKGISINPSKRIMLTNTAIIEMDSDKFDEKFQYILKQKQAIQKPKEDEDSEIVDAEKLKEAFKKLQNSQEQDEWKEKATIIQSEQTKLDPSVLVPFLGKYEILDTDNKVEQLFEFSVGNLVEVHLTDTIHVQGQIKALYQGTVNKAVVEIELTSKTQLINLPLENLSFVEFE”, for which the “soluble on expression in E. coli” value is given as “soluble”. The same measure for “MGSDKIHHHHHHMPSETIKLTAKFKLKEIPNGLDVLFSTYREIVNFLISYAYENNITSFYRLKKETYKNLRKEYPELPSHYHYTAIDMATKIYRGYRKRRGKAKGKPVFKKEVIMLDDHLFKLDFEKRIVKLSTPSGRIELEFYPAKYHEKFKGWKVGQAWLVKTPKGLFINVVFSREVEIREPENFIGVDLNENNVTLCLPKGEFIQIITHEREIRTGYFVKRRKIQKNLRVGKKREELLEKYGSRERNRVDDLYHKLANKIVELAEKYGGIALEDLTEIRDSIRYSAELNGRLHRWSFRKLQRIIEYKAKLRGIKVIFVNPAYTSTLCPICGGKLSPNGHRVLKCKCGFEADRDVVGSWNVRLKALKMWGVTVPPESHPMKKGGWKVSRIDITQITADQNGYFMRRLRRALLLQ”: “not soluble”. The value for “MISIVGIGSGNRVEELTIKAYNTLKNSDIGIYPGNFIGEELKELFEDKTMFTGRDITSEKIKNIFHNNRDKNICLMVSGDPALYSGQFNTNLCLDEHIKWFNEHNYNYEMIPGLSSLSILCAKKSIDLTPFSKTQNVFITSIERLRDLKCFNYTELKSILSTKPVLALYQSLKEFDNIKSLLMEFYPPTTKVIFAQSLSWSNECIFETDLKTLNETESTTSQFNDQTLILVYPSTILTIK” was “not soluble”; that for “MGSDKIHHHHHHMLCENCHFNEAEVKLTVKGIDSTHEKWVCSVCAQGENPWLHSNDDNTYHTHQDDIEEAFVVKQILQHLAAKHGINFHEMAFKEEKKCPTCQMTLKDIAHVGKLGCADCYATFKEDIIDIVQRVQGGQFEHVGKTPQSSYKKLAIKKQIEEKSKYLNKLIDGQEFEEAAIVRDEIKALKSESEVSHDE” was “not soluble”. Consider “MGSDKIHHHHHHMKILILRFSSIGDIVLTTPVIRCLKKQIPNAEIHFATKASFKSILENNPYIDKLHLLESSTASFIKQLKAERFDVVIDLHSNIRTKRIKWALKAKSFTFDKLNIRKWFYVNWKWKTMPAIHIVDRYLDTVKHLGVKNDNEGLDYFIPEKDIISRDSLPQKYAAGYVAIAIGAQHATKRLPEAKLIELIGKISHPIILLGGKDDTATAARLVAYFPDTKNILNACGTYNLNQSASIVHQCMYLYTHDTGLMHIGAALQKRIISIWGNTTPELGMYAYKTEHVNWQKEDLYCRPCSKIGYNSCPKKHFRCMNEQVLPVHEIESRWN”, for which the “soluble on expression in E. coli” value is given as “not soluble”. The same measure for “MQDILFDFISTYISLTEDEKNALLSLDLFRSVPKGTILLKEGQKSQESYFVLKGCIRIYYIIDGEEKTTAFYTEMDALTPPCVIHNAPSEYFISCIEDSILTVSNLEMEAEINSKFPKFELMCRMLSEELLAKQQIDFDAFKTSSPEQRYLNVLQNRPDLIQRVPQHQLASFLGIKPQSLSRLRARIVDKKS”: “not soluble”.

“MSTSTAPSSASSDADSLNHDENPIKAVIFDYGEVMWMQSRNVHVYRKIEEDNKLFDNSLIPTLVSKELSSILPKGFQEDLLTGIYTAKDFDRLFLSAYNRKFGSQVESLKFFSATEYDNDAVYEEAVLTACQKLRERGVKTILMLDTYHVDEKRNGRRIPNMEKYFDHVIESCKEGVKKPDPRFYQIALDCVDVQPEEVIYIDDSKINCESAAVLGIRYIQVFNSMDMLEDLQEILGFDLD”: the “soluble on expression in E. coli” value is on record as “not soluble”. The value for “IVRACRFMAERQIGALIVIERQQNIEDLIEGCIYLDAYITAELIITIFYPLTPLHDGAVVIRDDRIAFASCVLPLSKNPELPKKYGTRHRAAVGITEMSDAVAIVVSEETGEISVAVEGNI” was “soluble”; that for “MAHHHHHHMSVTASAAAAAAAAAASPRPPSSALYTERLFYAVLKQGNPSEARVEALAALALRHLPKSAETWAALRKALMEQSDLDGAPNRTLWYVLDALIKHAPHVFVPLVAPRLLEYTIQQLPWELAGHRGQTLLWFEALVLSWEKVLPQRLYSAVRQHAVQSRSGAELHDLLEAAENSVDDGTSASPADLQQLRDAWDAVQYMGEQEAGKSVFHARLIAAAVVVADEDGNSSLSPSPPVSGLYATPTGHNGRTAGAGTSGADIANTQQQQQQQEEDEYTPDFIEGAKPRELPKLDLPKLKRRREGRRRPREEDLGM” was “soluble”. The same measure for “GMSSNLHGIAIGIERSQDDFYLAFKAVGKLTHEDYEQMTPLLESALAGIKTPEIVALIDITELDGLSLHAAWDDLKLGLKHGKEFKRVAIIGQGELQEWATRVANWFTPGEFKFFEDKRDALDWLC”: “soluble”. For “GMKIDGETRSARKDREIIQAATAAFISKGYDGTSMEEIATKAGASKQTVYKHFTDKETLFGEVVLSTASQVNDIIESVTTLLSEAIFMEGGLQQLARRLIAVLMDEELLKLRRLIIANADRMPQLGRAWYEKGFERMLASTASCFQKLTNRGLIQTGDPYLAASHLFGMLLWIPMNEAMFTGSNRRSKAELERHADASVEAFLAVYGVQPK”, the “soluble on expression in E. coli” value is recorded as “soluble”.

In the case of “MGSDKIHHHHHHMDGTRERPMRKIIAATFVSLDGVMQAPGGPEEDPVGGFKFGGWTFHYFDEVGGAAMDELFSKPFTLLLGRRTYDIFTAYWPYQKDPIADAFNPATKYVATHRPDTLTWQNTQWLGEDIVAALRRLSKQDGPDLLIQRSADLIQTLLANGLIDEIRLMIFPLLLGKGKRLFGDGAMPAAFKLVKSQTSSTGVIIATYERSGEIEVGSFVMGEPSVAELERRRNWK”, the “soluble on expression in E. coli” value is listed as “not soluble”. The value for “MGSDKIHHHHHHMTEDQAFWNAFAPDYAAAEQASRLPIAHDVIAWLRSTQLLPAHSAVDLAAGTGRYAVQMMPWVQELTLIDWSSAMLAFAKERMHQQADTKAQFIVADWRKLHKPLNADMLFVSQLPTLKPQDLKMLMNWASQTVVLNFQTAQSDALLEQAASLLGLQLPPVYQADPARMISFKVWLTAQRIPFQSHSLTYEIEEQTTLSDLLPDLATPIGLKTAASLAKAITGHENTHVQVTDRLTYTYTQLVWHV” was “not soluble”; that for “MFSDTDISMMENALRLAALGRFSTSPNPRVGCVIAHGSQIVGQGFHVKAGEPHAEVHALRQAGEMAQGATAFVTLEPCSHYGRTPPCAEALVRAGVSRVVAAMRDPNPLVAGKGLALLEAAGIKTECGLLEHQARELNRGFLSRIERRRPFVRLKCAVSLDGKTALSDGSSFWITGEDARADVQVLRAESCAVLTGIGTVLADNPRLNVRAFPTLRQPARIVLDSRLRLPPNSHLVTDGQSPTYIATLERNEDRLHPYREHAHVRILMPSETADSKIDLHHLMRLLADEGFGEIMVEAGSELTSAFLAENLADEIVLYRSPKILGSGKDLFSLLENRAALSAPPLWTPVSSEILGHNIKTVFRKNGNAF” was “soluble”.

The record behind these values is the DeepSol protein solubility set.
